Test [1] addresses T1, CHIKV Caribbean strain, Asian lineage (envelope protein E2 on virus) (Chikungunya virus). The test can be described thus: cell-based or functional assay.
The target in test [2] is T2, CHIKV La Reunion (LR) strain, ECSA lineage (envelope protein E2 on virus) (Chikungunya virus). Put plainly: cell-based or functional assay.
Test [3] has as its target T3, CHIKV 37997 strain, West African lineage (envelope protein E2 on virus) (Chikungunya virus). The test can be described thus: cell-based or functional assay.
Test [4] concerns the target T1, CHIKV Caribbean strain, Asian lineage …. Put plainly: cell-based or functional assay. This is another data set of the same source.
Test [5] has as its target T2, CHIKV La Reunion (LR) strain, ECSA …. The test can be described thus: cell-based or functional assay. The source holds these as a separate data set.
In test [6] the target is T3, CHIKV 37997 strain, West African …. The test can be described thus: cell-based or functional assay. This is another data set of the same source.
For test [7], the target named is T4, recombinant human FcRn (human, UniProt P55899 24-297; P61769 21-119).
T4 construct: also called human FcRn receptor
The test can be described thus: SPR, human FcRn immobilised; relative to mAb1.

The target of test [8] is T5, recombinant mouse FcRn (mouse, UniProt Q61559 22-297; P01887 21-119).
T5 sequence 1: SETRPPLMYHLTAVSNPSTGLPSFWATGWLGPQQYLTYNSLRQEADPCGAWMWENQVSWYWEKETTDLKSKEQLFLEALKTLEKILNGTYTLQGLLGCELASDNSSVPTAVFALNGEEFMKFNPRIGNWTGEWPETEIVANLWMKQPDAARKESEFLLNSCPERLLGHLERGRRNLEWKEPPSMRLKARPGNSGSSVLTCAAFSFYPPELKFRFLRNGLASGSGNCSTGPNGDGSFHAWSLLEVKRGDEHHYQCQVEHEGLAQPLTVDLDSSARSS
T5 sequence 2: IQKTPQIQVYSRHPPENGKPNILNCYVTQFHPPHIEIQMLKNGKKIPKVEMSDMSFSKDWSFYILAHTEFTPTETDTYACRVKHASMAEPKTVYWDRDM
The test can be described thus: SPR, mouse FcRn immobilised; relative to mAb1. On the technique in general: SPR reads the build-up and loss of mass on a sensor chip optically.

Test [9] deals with T4, recombinant human FcRn. The test can be described thus: SPR (Biacore T200), human FcRn immobilised on CM5 chip.
Test [10] deals with T5, recombinant mouse FcRn. The test can be described thus: SPR (Biacore T200), mouse FcRn immobilised on CM5 chip.
Test [11] addresses Antigen (E2) (Chikungunya virus). The test can be described thus: SPR (Biacore T200), His-tagged antigen captured by anti-His antibody, 1:1 model.
Test [12] has as its target T6, Recombinant human HPC4-tagged FcγRIII-F158 (human, UniProt P08637 17-208).
T6 construct: also called FcγRIIIaF158; not shown: HPC4 tag
Put plainly: SPR (Biacore 3000), HPC4-tagged FcγRIII-F158 captured on anti-HPC4 CM5 chip, antibody injected 2 min, in duplicate; concentration (900, 300 or 100 nM in the methods) not printed on the sheet.

Test [13] concerns the target T7, Recombinant human HPC4-tagged FcγRIIIa-V158 (human, UniProt P08637 17-208).
T7 construct: Valine at 158 is a polymorphism, named without an old residue; also called Val158; not shown: HPC4 tag
Put plainly: SPR (Biacore 3000), HPC4-tagged FcγRIIIa-V158 captured on anti-HPC4 CM5 chip, antibody injected 2 min, in duplicate; concentration (900, 300 or 100 nM in the methods) not printed on the sheet.

Test [14] addresses T8, His-tagged CHIKV E2 LR2006 (Chikungunya virus strain LR2006, UniProt Q8JUX5 326-1220).
T8 construct: also called CHIKV pE2-E1 antigen derived from CHIKV strain LR2006; pE2-E1 target
Put plainly: SPR, His-tagged antigen captured.

Test [15] has as its target T9, His-tagged CHIKV E2 SL15649 (Chikungunya virus strain SL15649, UniProt Q8JUX5 326-1220).
T9 construct: also called CHIKV pE2-E1 antigen derived from CHIKV strain SL15649; pE2-E1 target
The test can be described thus: SPR, His-tagged antigen captured.

Test [16] addresses T4, recombinant human FcRn. Put plainly: SPR, human FcRn immobilised; relative to mAb2.
The target of test [17] is T5, recombinant mouse FcRn. The test can be described thus: SPR, mouse FcRn immobilised; relative to mAb2.
In test [18] the target is T4, recombinant human FcRn. Put plainly: SPR (Biacore T200), human FcRn immobilised on CM5 chip. This is another data set of the same source.
Test [19] deals with T5, recombinant mouse FcRn. The test can be described thus: SPR (Biacore T200), mouse FcRn immobilised on CM5 chip. This is another data set of the same source.
The target in test [20] is T6, Recombinant human HPC4-tagged …. The test can be described thus: SPR (Biacore 3000), HPC4-tagged FcγRIII-F158 captured on anti-HPC4 CM5 chip, antibody injected 2 min, in duplicate; concentration (900, 300 or 100 nM in the methods) not printed on the sheet. This is another data set of the same source.
Test [21] deals with T7, Recombinant human HPC4-tagged …. Put plainly: SPR (Biacore 3000), HPC4-tagged FcγRIIIa-V158 captured on anti-HPC4 CM5 chip, antibody injected 2 min, in duplicate; concentration (900, 300 or 100 nM in the methods) not printed on the sheet. The source holds these as a separate data set.
The target of test [22] is Antigen (E2) (Chikungunya virus). Put plainly: SPR (Biacore T200), His-tagged antigen captured by anti-His antibody, 1:1 model. The source holds these as a separate data set.
Test [23] deals with T8, His-tagged CHIKV E2 LR2006. The test can be described thus: SPR, His-tagged antigen captured (example 3, FIG. 5).
In test [24] the target is T9, His-tagged CHIKV E2 SL15649. The description is as above.

Where a chain is given by its changes, count along the chain named. Where two headings read alike, the source gives them in different places. Where only a bound is given, the exact number is not on record here.

T6 sequence (P08637 17-208): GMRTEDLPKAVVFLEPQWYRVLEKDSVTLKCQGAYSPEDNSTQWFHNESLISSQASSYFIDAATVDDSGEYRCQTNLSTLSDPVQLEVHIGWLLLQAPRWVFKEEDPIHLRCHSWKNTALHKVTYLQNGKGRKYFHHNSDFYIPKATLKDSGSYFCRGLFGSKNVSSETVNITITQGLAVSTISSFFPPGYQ
T7 sequence (P08637 17-208 F176V): as the sequence (P08637 17-208) above, with F160V counted along it
T4 sequence (P55899 24-297 limits assumed, chain 1 of 2): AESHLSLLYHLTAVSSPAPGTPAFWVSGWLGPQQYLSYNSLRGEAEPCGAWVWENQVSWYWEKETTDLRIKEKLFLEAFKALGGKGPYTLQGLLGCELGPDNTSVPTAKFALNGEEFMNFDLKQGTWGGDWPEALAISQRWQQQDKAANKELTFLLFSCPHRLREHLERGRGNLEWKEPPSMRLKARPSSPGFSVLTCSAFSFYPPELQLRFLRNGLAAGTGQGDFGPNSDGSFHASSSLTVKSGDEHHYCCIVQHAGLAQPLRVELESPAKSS
T4 sequence (P61769 21-119 limits assumed, chain 2 of 2): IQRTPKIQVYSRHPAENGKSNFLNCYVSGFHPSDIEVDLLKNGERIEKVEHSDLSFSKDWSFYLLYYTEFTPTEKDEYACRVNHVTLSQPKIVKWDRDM

B1: mAb1 (antibody)
heavy: not shown
light: QAVVTQPPSVSGAPGQRVTISCTGSSSNIGADYNVHWYQLLPGTAPKLLIYGNTNRPSGVPDRFSGSKSGTSASLAITGLQAEDEADYYCQSYDSSLSASVFGGGTKLTVLGQPKAAPSVTLFPPSSEELQANKATLVCLISDFYPGAVTVAWKADSSPVKAGVETTTPSKQSNNKYAASSYLSLTPEQWKSHRSYSCQVTHEGSTVEKTVAPTECS
notes: also called parent antibody mAb1
What is called Kd is the equilibrium constant for the complex coming apart. Take B1: the “EC50, plaque reduction neutralization” value in test [1], in test [2] and in test [3] was < 10 ng/mL in each case. The “In vitro neutralization - EC50 (ng/ml), plaque reduction assay on Vero cells” value in test [4] is 7.6 ng/mL; in test [5] it was 3.9 ng/mL; in test [6] it was 4.8 ng/mL. Further, the “Affinity Increase (fold)” value with recombinant human FcRn [7] and in the test with recombinant mouse FcRn [8] was 1 fold each time. The values for the Kd with recombinant human FcRn [9], with recombinant mouse FcRn [10] and in the test with Antigen (E2) [11] were 348 nM, 20 nM and 0.13 nM, respectively. Besides, the binding result in test [12] and in test [13] was “binds” throughout.

B2: mAb7 (antibody)
heavy: not shown
light: B1 light
notes: also called mAb1LS
With B2, the “EC50, plaque reduction neutralization” value in test [1], in test [2] and in [3] was < 1 ng/mL each time. Besides, the “In vitro neutralization - EC50 (ng/ml), plaque reduction assay on Vero cells” value in test [4] was 0.6 ng/mL; in [5], 0.3 ng/mL; in test [6] it was 0.2 ng/mL. Also, the results for the “Affinity Increase (fold)” value in the test with recombinant human FcRn [7] and in the test with recombinant mouse FcRn [8] were 23.8 fold and 3.4 fold, respectively. Further, the Kd with recombinant human FcRn [9] turned out to be 15 nM; in the test with recombinant mouse FcRn [10], 5.9 nM; with Antigen (E2) [11], 0.17 nM. Also, the binding result in test [12] and in test [13] was “binds” each time.

B3: mAb8 (antibody)
heavy: QVQLVQSGAEVKKPGASVKVSCKVSGYILSKLSVHWVRQAPGKGLEWMGGSEREDGETVYAQKFQGRISLTEDTSIETAYMELSSLSSEDTAVYYCATGGFWSMIGGNGVDYWGQGTLVTVSSASTKGPSVFPLAPSSKSTSGGTAALGCLVKDYFPEPVTVSWNSGALTSGVHTFPAVLQSSGLYSLSSVVTVPSSSLGTQTYICNVNHKPSNTKVDKKVEPKSCDKTHTCPPCPAPELLGGPSVFLFPPKPKDTLYITREPEVTCVVVDVSHEDPEVKFNWYVDGVEVHNAKTKPREEQYNSTYRVVSVLTVLHQDWLNGKEYKCKVSNKALPAPIEKTISKAKGQPREPQVYTLPPSRDELTKNQVSLTCLVKGFYPSDIAVEWESNGQPENNYKTTPPVLDSDGSFFLYSKLTVDKSRWQQGNVFSCSVMHEALHNHYTQKSLSLSPG
light: QAVVTQSPSSLPASVGDRVTITCRASQDIRNNLGWYQQKPGKAPERLIYGTSNLQSGVPSRFSGSGSGTEFTLTISSLQPEDFATYYCLQHNSYPPTFGRGTKVEIKRTVAAPSVFIFPPSDEQLKSGTASVVCLLNNFYPREAKVQWKVDNALQSGNSQESVTEQDSKDSTYSLSSTLTLSKADYEKHKVYACEVTHQGLSSPVTKSFNRGEC
notes: also called mAb2YTE
With B3, the binding result in [14], in test [15], in [20] and in test [21] was “binds” throughout. The “Affinity Increase (fold)” value with recombinant human FcRn [16] amounted to 14.1 fold; in the test with recombinant mouse FcRn [17], 19.5 fold. In addition, the equilibrium dissociation constant (Kd) turned out to be 23 nM in the test with recombinant human FcRn [18] and 1.2 nM with recombinant mouse FcRn [19].

B4: mAb9 (antibody)
heavy: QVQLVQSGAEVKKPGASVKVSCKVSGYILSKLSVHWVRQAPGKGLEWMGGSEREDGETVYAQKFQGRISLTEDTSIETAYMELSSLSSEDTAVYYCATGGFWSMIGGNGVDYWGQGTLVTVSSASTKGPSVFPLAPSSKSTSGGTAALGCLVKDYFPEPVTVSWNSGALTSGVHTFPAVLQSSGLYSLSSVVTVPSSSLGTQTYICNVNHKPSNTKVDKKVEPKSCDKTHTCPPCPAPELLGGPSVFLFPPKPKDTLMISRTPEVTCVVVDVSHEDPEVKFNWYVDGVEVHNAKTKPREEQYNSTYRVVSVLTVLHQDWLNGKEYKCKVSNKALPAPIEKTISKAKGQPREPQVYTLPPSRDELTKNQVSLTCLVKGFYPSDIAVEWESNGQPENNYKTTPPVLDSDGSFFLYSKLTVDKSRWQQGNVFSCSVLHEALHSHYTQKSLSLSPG
light: B3 light
notes: also called mAb2LS
Consider B4, for which the binding result in test [14], in test [15], in [20] and in [21] was “binds” in each case. Further, the “Affinity Increase (fold)” value was determined as 16.6 fold with recombinant human FcRn [16] and 3 fold in the test with recombinant mouse FcRn [17]. Also, the Kd with recombinant human FcRn [18] stood at 20 nM; with recombinant mouse FcRn [19] it was 7.5 nM; in the test with Antigen (E2) [22], 0.25 nM.

B5: mAb14 (antibody)
heavy: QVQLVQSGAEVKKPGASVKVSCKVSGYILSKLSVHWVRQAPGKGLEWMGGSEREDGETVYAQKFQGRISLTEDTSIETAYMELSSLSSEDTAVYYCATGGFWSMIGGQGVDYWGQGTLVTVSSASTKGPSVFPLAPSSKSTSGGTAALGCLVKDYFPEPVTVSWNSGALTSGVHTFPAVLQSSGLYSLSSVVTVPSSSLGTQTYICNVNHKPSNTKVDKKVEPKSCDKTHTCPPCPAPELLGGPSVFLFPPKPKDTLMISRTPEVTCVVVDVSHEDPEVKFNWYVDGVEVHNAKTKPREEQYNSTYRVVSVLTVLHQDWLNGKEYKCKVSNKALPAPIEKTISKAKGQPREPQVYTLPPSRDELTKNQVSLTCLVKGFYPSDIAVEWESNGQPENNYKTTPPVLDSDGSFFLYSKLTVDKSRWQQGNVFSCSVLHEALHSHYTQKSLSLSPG
light: B3 light
notes: also called mAb2N108QLS
Regarding B5, the “Affinity Increase (fold)” value was determined as 18.2 fold in the test with recombinant human FcRn [16] and 3.6 fold with recombinant mouse FcRn [17]. For the same molecule, the binding result in [23], in test [24], in [20] and in [21] was “binds” throughout. The Kd with recombinant human FcRn [18] turned out to be 18 nM; with recombinant mouse FcRn [19], 6.2 nM; in the test with Antigen (E2) [22], 0.12 nM.

B6: mAb13 (antibody)
heavy: B3 heavy with N108Q
light: B3 light
notes: also called mAb2N108QYTE
On to B6, for which the “Affinity Increase (fold)” value in the test with recombinant human FcRn [16] and with recombinant mouse FcRn [17] was 13.7 fold throughout. Also, the binding result in test [23], in test [24], in test [20] and in [21] was “binds” each time. Moreover, the Kd with recombinant human FcRn [18] worked out at 24 nM; with recombinant mouse FcRn [19] it was 1.6 nM.

The record behind these values is patent US20180127487A1 (Sanofi, published 2018).
